T1: TGFβ Receptor II (TβRII) (Mus musculus, UniProt Q62312)
T1 construct: contains the extracellular domain of mouse TβRII fused to the Fc domain of human IgG; purchased R&D
T1 sequence (Q62312 24-166 limits assumed): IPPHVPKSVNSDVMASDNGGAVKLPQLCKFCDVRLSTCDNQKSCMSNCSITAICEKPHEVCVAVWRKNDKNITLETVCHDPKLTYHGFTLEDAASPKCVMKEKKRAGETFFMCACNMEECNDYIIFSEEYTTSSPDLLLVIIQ


How the values were obtained:
[1] = tested on: Smad3 phosphorylation (canonical TGFβ signaling); assay: Smad3 phosphorylation in serum starved IMR90 fibroblasts (Western blot); type: cell-based, human; settings: for Smad3 phosphorylation: serum starved IMR90, ~30 nM protein, 30 min, low serum media
Protocol: (§1) IMR90 cells and MLEC-TGFβ cells were generally treated for 30 min, 24 h, or 48 h in low serum media containing 0.5% FBS and 1% penicillin/streptomycin and incubated in a 5% CO2 atmosphere at 37° C. Cells were treated with 3.75 μg/ml (approximately 30 nM) rACLP (full length, Tsp, or C-terminal) or 1 nM TGFβ (R&D) (as a positive control), except where indicated. Cells treated for 30 min were serum starved in low serum media overnight preceding treatment.
rACLP stimulates canonical TGFβ signaling (Published Tumelty et al JBC 2014). Because ACLP increases TGFβ signaling in a reporter assay, the role of ACLP in canonical TGFβ signaling was investigated in detail. In pulmonary fibroblasts, TGFβ promotes the phosphorylation of Smad3 which then binds to Smad4 and translocates into the nucleus to promote transcription of myofibroblast marker genes (4,5). Therefore, the effects of ACLP on Smad3 phosphorylation were measured. Serum starved IMR90 cells were treated with rACLP for 15, 30, 45, or 60 min, or 24 h (FIG. 3) (3).
Serum starved IMR90 human lung fibroblasts were treated with equivalent molar amounts (˜30 nM) of purified full-length, Tsp repeat domain, or C-terminal protein for 30 min in low serum media (FIG. 6).

[2] = tested on: TGFβ signaling activity (PAI-1 promoter luciferase); assay: MLEC-TGFβ activity assay (PAI-1 promoter luciferase reporter); type: cell-based, mink; settings: MLEC-TGFβ cells, treated overnight in low serum media
Protocol: Cell Treatments. IMR90 human lung fibroblasts (ATCC) and AD293 cells (Stratagene) were grown in DMEM supplemented with 10% FBS and 1% penicillin/streptomycin and incubated in a 5% CO2 atmosphere at 37° C. Mink lung epithelial cells stably transfected with the plasminogen activator inhibitor 1 (PAI-1) reporter construct driving luciferase expression (MLEC-TGFβ) (2) were grown in DMEM supplemented with 10% FBS and 1% penicillin/streptomycin, maintained in 250 μg/ml G418, and incubated in a 5% CO2 atmosphere at 37° C. IMR90 cells and MLEC-TGFβ cells were generally treated for 30 min, 24 h, or 48 h in low serum media containing 0.5% FBS and 1% penicillin/streptomycin and incubated in a 5% CO2 atmosphere at 37° C. Cells were treated with 3.75 μg/ml (approximately 30 nM) rACLP (full length, Tsp, or C-terminal) or 1 nM TGFβ (R&D) (as a positive control), except where indicated. Cells treated for 30 min were serum starved in low serum media overnight preceding treatment. MLEC-TGFβ activity assay. To measure TGFβ signaling activity, 1×10^4 MLEC-TGFβ cells/well were plated on white 96-well cell culture treated plates and allowed to adhere overnight. […] Luciferase activity was measured on an auto-injecting BioTek Synergy HT plate reader using 50 μl of luciferase assay substrate (Promega).

[3] = tested on: IMR90 human lung fibroblast cells; assay: SMA and collagen I protein expression in IMR90 fibroblasts treated with recombinant ACLP proteins (Western blot); type: cell-based; settings: IMR90, low serum media, 3.75 μg/ml (~30 nM) protein, 48 h, vs control cells
Protocol: Cell Treatments. IMR90 human lung fibroblasts (ATCC) and AD293 cells (Stratagene) were grown in DMEM supplemented with 10% FBS and 1% penicillin/streptomycin and incubated in a 5% CO2 atmosphere at 37° C. Mink lung epithelial cells stably transfected with the plasminogen activator inhibitor 1 (PAI-1) reporter construct driving luciferase expression (MLEC-TGFβ) (2) were grown in DMEM supplemented with 10% FBS and 1% penicillin/streptomycin, maintained in 250 μg/ml G418, and incubated in a 5% CO2 atmosphere at 37° C.
as §1
Recombinant ACLP induces myofibroblast gene and protein expression. To further define the role of ACLP in the fibroblast to myofibroblast differentiation process, IMR90 human lung fibroblast cells were treated with rACLP. […] IMR90 cells were grown in media containing 3.75 μg/ml (30 nM) rACLP or 1 nM TGFβ as a positive control (FIG. 2A). […] These findings indicate that ACLP promotes the fibroblast to myofibroblast differentiation because it stimulates expression of SMA and collagen 1(3).
The N-terminal domain of ACLP promotes myofibroblast marker protein expression. Because the inventors discovered that the N-terminal Tsp motifs of ACLP (e.g. the PFD) is the domain responsible for promoting TGFβ signaling, the inventors next assessed which domain of ACLP is responsible for increased SMA and collagen I expression in lung myofibroblasts. IMR90 lung fibroblasts were treated in low serum media containing equal molar amounts of full-length protein, the pro-fibrotic domain (PFD) of ACLP, and C-terminal ACLP (˜30 nM) for 48 h (FIG. 7).

[4] = biological target: T1, TGFβ Receptor II (TβRII); assay: ACLP binding assay: biotinylated rACLP on streptavidin plate incubated with TβRII Fc; settings: immobilized rACLP vs control-coated wells, p<0.05
Protocol: ACLP binding assays. To determine if ACLP binds to TGFβ Receptor II (TORII), ACLP was biotinylated using an EZ-Link Sulfo-NHS-LC-Biotin kit (Thermo Scientific 21327) according to manufacturer's instructions. Briefly, rACLP (0.267 nM) was incubated with 20 fold molar excess of biotin for 30 min at room temperature. The protein was then dialyzed back into DPBS overnight. Biotinylated ACLP (1 μg/well) was immobilized on a PIERCE™ Streptavidin coated High-Binding Capacity Plate (Thermo-Scientific PI-15500) overnight at 4° C. in binding buffer made up of PBS with Mg^2+, Ca^2+, 0.1% BSA, and 0.05% Tween 20). The next day, the plates were washed with binding buffer, blocked with the same buffer containing 1% BSA at room temperature for 1 h, followed by incubation with increasing amounts of TβRII Fc (0, 10, 100, 1000 ng). Binding was detected with Human-IgG-HRP (GE Healthcare Life Sciences) followed by incubation with 3,3′,5,5′-Tetramethylbenzidine (TMB, eBioscience). The reaction was quenched with 2 M H2SO4 and absorbance at 450 nm was measured on the BioTek Synergy HT system.
ACLP binds to the TGFβ-receptor II. […] The TβRII Fc chimera contains the extracellular domain of mouse TβRII fused to the Fc domain of human IgG and has been used as a global inhibitor of TGFβ (6).

[5] = tested on: TGFβ; assay: ACLP interaction with TGFβ (cell-free binding assay; latent TGFβ activation; data not shown)
[6] = tested on: Normal murine mammary gland epithelial cells (NMuMg); assay: EMT marker qPCR in NMuMg cells treated with rACLP; type: cell-based, mouse
Protocol: Normal murine mammary gland epithelial cells (NMuMg) were treated with rACLP (30 nM) or TGFβ (1 nM) and RNA was analyzed by qPCR after 48 hours.

amount that stimulated luciferase activity [2] [µg/mL]	binding to the TβRII Fc chimera (absorbance at 450 nm) [4]	Molecule	Smad3 phosphorylation [1]	SMA protein expression [3]	collagen protein expression [3]	SMA protein expression ([3]; listed as Full-length ACLP)	collagen protein expression ([3]; listed as Full-length ACLP)	time at which Smad3 phosphorylation was first detected ([1]; serum starved IMR90, 3.75 μg/ml rACLP) [min]	Smad3 phosphorylation, short-term treatment ([1]; serum starved IMR90, 3.75 μg/ml rACLP, 15-60 min)	Smad3 phosphorylation after 24 h ([1]; serum starved IMR90, 3.75 μg/ml rACLP, 24 h)	activation of latent TGFβ [5]	direct interaction with TGFβ ([5]; cell-free binding assay)	cellular morphology ([6]; ACLP treated cells, consistent with EMT)	epithelial marker occludin (qPCR) ([6]; NMuMg, rACLP 30 nM, 48 hours)	mesenchymal marker SMA (qPCR) ([6]; NMuMg, rACLP 30 nM, 48 hours)	mesenchymal marker Snail (qPCR) ([6]; NMuMg, rACLP 30 nM, 48 hours)	mesenchymal marker fibronectin (qPCR) ([6]; NMuMg, rACLP 30 nM, 48 hours)
> 25	–	C-terminal ACLP: recombinant C-terminal discoidin and carboxypeptidase domains of mouse ACLP, amino acids 374-1128 (protein, left off: small tags and cut ends) IKCPPIGMESHRIEDNQIRASSMLRHGLGAQRGRLNMQAGANEDDYYDGAWCAEDESQTQWIEVDTRRTTRFTGVITQGRDSSIHDDFVTTFFVGFSNDSQTWVMYTNGYEEMTFYGNVDKDTPVLSELPEPVVARFIRIYPLTWNGSLCMRLEVLGCPVTPVYSYYAQNEVVTTDSLDFRHHSYKDMRQLMKAVNEECPTITRTYSLGKSSRGLKIYAMEISDNPGDHELGEPEFRYTAGIHGNEVLGRELLLLLMQYLCQEYRDGNPRVRNLVQDTRIHLVPSLNPDGYEVAAQMGSEFGNWALGLWTEEGFDIFEDFPDLNSVLWAAEEKKWVPYRVPNNNLPIPERYLSPDATVSTEVRAIISWMEKNPFVLGANLNGGERLVSYPYDMARTPSQEQLLAEALAAARGEDDDGVSEAQETPDHAIFRWLAISFASAHLTMTEPYRGGCQAQDYTSGMGIVNGAKWNPRSGTFNDFSYLHTNCLELSVYLGCDKFPHESELPREWENNKEALLTFMEQVHRGIKGVVTDEQGIPIANATISVSGINHGVKTASGGDYWRILNPGEYRVTAHAEGYTSSAKICNVDYDIGATQCNFILARSNWKRIREILAMNGNRPILRVDPSRPMTPQQRRMQQRRLQYRLRMREQMRLRRLNSTAGPATSPTPALMPPPSPTPAITLRPWEVLPTTTAGWEESETETYTEVVTEFETEYGTDLEVEEIEEEEEEEEEEMDTGLTFPLTTVETYTVNFGDF	did not	–	–	–	–	–	–	–	–	–	–	–	–	–	–
–	significantly more binding	rACLP: recombinant full length mouse ACLP (amino acids 26-1128), BM40 signal sequence, C-terminal myc-His tag, from AD293 cells (protein, left off: small tags and cut ends) QTVLTDDEIEEFLEGFLSELETQSPPREDDVEVQPLPEPTQRPRKSKAGGKQRADVEVPPEKNKDKEKKGKKDKGPKATKPLEGSTRPTKKPKEKPPKATKKPKEKPPKATKKPKEKPPKATKKPKEKPPKATKRPSAGKKFSTVAPLETLDRLLPSPSNPSAQELPQKRDTPFPNAWQGQGEETQVEAKQPRPEPEEETEMPTLDYNDQIEKEDYEDFEYIRRQKQPRPTPSRRRLWPERPEEKTEEPEERKEVEPPLKPLLPPDYGDSYVIPNYDDLDYYFPHPPPQKPDVGQEVDEEKEEMKKPKKEGSSPKEDTEDKWTVEKNKDHKGPRKGEELEEEWAPVEKIKCPPIGMESHRIEDNQIRASSMLRHGLGAQRGRLNMQAGANEDDYYDGAWCAEDESQTQWIEVDTRRTTRFTGVITQGRDSSIHDDFVTTFFVGFSNDSQTWVMYTNGYEEMTFYGNVDKDTPVLSELPEPVVARFIRIYPLTWNGSLCMRLEVLGCPVTPVYSYYAQNEVVTTDSLDFRHHSYKDMRQLMKAVNEECPTITRTYSLGKSSRGLKIYAMEISDNPGDHELGEPEFRYTAGIHGNEVLGRELLLLLMQYLCQEYRDGNPRVRNLVQDTRIHLVPSLNPDGYEVAAQMGSEFGNWALGLWTEEGFDIFEDFPDLNSVLWAAEEKKWVPYRVPNNNLPIPERYLSPDATVSTEVRAIISWMEKNPFVLGANLNGGERLVSYPYDMARTPSQEQLLAEALAAARGEDDDGVSEAQETPDHAIFRWLAISFASAHLTMTEPYRGGCQAQDYTSGMGIVNGAKWNPRSGTFNDFSYLHTNCLELSVYLGCDKFPHESELPREWENNKEALLTFMEQVHRGIKGVVTDEQGIPIANATISVSGINHGVKTASGGDYWRILNPGEYRVTAHAEGYTSSAKICNVDYDIGATQCNFILARSNWKRIREILAMNGNRPILRVDPSRPMTPQQRRMQQRRLQYRLRMREQMRLRRLNSTAGPATSPTPALMPPPSPTPAITLRPWEVLPTTTAGWEESETETYTEVVTEFETEYGTDLEVEEIEEEEEEEEEEMDTGLTFPLTTVETYTVNFGDF	stimulated Smad3 phosphorylation	induced an increase	induced an increase	promoted an increase	promoted an increase	15	stimulated Smad3 phosphorylation	not detectable	did not appear to	did not appear to directly interact	change in cellular morphology	decreasing	enhanced	enhanced	enhanced
